Earlier results in article PMC3652491.

Biological target: Nef peptide 12-residue peptide (Human immunodeficiency virus 1) (UniProt P04324)

For Hck SH3 (from UniProt P08631), the Kd is given as 90 µM.
